Assay results published in article PMC3656090 (PLoS Pathogens, 2013).

Molecular target: T1, synthetic peptide comprising the epitope II region (residues 434-446) of HCV E2, strain H77 (Hepatitis C virus, strain H77)
T1 chain: NTGWLAGLFYQHK
Test: crystal structure; Fab 10 mg/ml + epitope II peptide (0.9 mg/ml for HC84-1, 1.5 mg/ml for HC84-27), complex formed overnight at 277 K; crystals at 293 K, hanging drop, 10 mM TRIS pH 8.0, 150 mM NaCl
Settings: both partners purified

B1: Fab fragment of human monoclonal antibody HC84-27 (Fab, V domains shown)
VH: QVTLKESGAEVKKPGSSVKVSCEASGGTLSNYVITWVRQAPGQGLEWMGGFIPTFRTAMYAQGFQGRVTITADESTSIAYMELTNLRSEDTAVYYCARGPLSRGYYDYWGQGTLVTVSS
VL: SYVLTQPPSVSVSPGQTARITCSGDKLGDKYASWYQQKPGQSPVLVIYQDNKRPSEIPARFSGSNSGNTATLTISGAQAMDEADYYCQAWDSNTGVFGTGTKLTVL
  binding result: binds
